Experimental data published in patent US20170327561A1, “Anti-Angiogenic Properties of Collagen V Derived Fragments” (Ecole Normale Superieure de Lyon, priority 2014, published 2017).
Entries after “also recorded” stand apart in the source; their conditions may differ.

Key:
[1] = Heparin-Sepharose affinity chromatography (NaCl gradient elution); format: binding; conditions: linear NaCl gradient 0-500 mM, Tris-HCl pH 7.4
Method: Heparin-Sepharose affinity columns (HiTrap Heparin, Amersham) were equilibrated in 50 mM Tris-HCl (pH 7.4). Protein samples were loaded onto a column, and a programmed linear gradient of 0-500 mM NaCl, 1M Tris-HCl (pH 7.4) was applied at a flow rate of 0.5 ml/min, confirmed by continuous conductivity measurement. Fractions (1 ml) were collected, and the elution profile of protein samples was determined by monitoring the absorbance at 214 nm. To accurately compare elution positions of the mutant, its elution with NaCl gradient was achieved versus a standard HEPV elution.
The affinity of both peptides for heparin is compared, on a heparin-sepharose column, determined with the necessary quantity of NaCl to elute the peptides.

[2] = tested on: human dermal microvascular endothelial cells (HDMEC); experiment: Quantitative real-time RT-PCR of collagen genes in HEPV-treated endothelial cells; format: cell-based; conditions: HDMEC treated with HEPV for 4, 12 and 24 hours; relative to untreated controls, normalized to L30
Method: Expression of COL14A1 and COL18A1 mRNA in human dermal microvascular endothelial cells (HDMEC) treated with HEPV for 4, 12 and 24 hours, analyzed by real-time PCR. Values are normalized to the house keeping gene L30. Quantification is expressed relative to controls (cells cultivated in the same conditions without HEPV). Values are mean±SEM (n=3).
Total RNA was isolated from 8×10^6 cells by phenol-chloroform-isopropanol extraction (Trizol Reagent, Invitrogen). A reverse transcriptase reaction was performed on 1 μg of RNA using M-MLV reverse transcriptase (Promega). Quantitative PCRs were performed using SYBR Green Supermix (Biorad) and specific primers using a I-Cycler Optical System (Biorad). The following primers were used: […]
L30 was selected as housekeeping gene and used for normalization. Relative transcript abundances were determined as well known by the person skilled in the art. Relative gene expression was determined using the 2^−ΔΔC^T method. Student's t-tests were used to determine statistical significance (n=4).
A transcriptomic analysis has been performed, in order to identify the HEPV-regulated genes. Endothelial HDMEC cells have been treated with HEPV or not, for 4, 12 and 24 hours.

[3] = tested on: FGF-2-induced ERK1/2 and Akt phosphorylation in HUVEC; experiment: Phosphorylation assay (Western blot) after FGF-2 stimulation; format: cell-based; conditions: peptide 8 μg/mL 24 h, FGF-2 50 ng/mL
Method: (§1) HUVEC were seeded at 2.10^5 cells/wells in ECGM2 in 6-well plates. The cells were treated with HEPV or ΔHBS-HEPV (8 μg/mL) during 24 h in serum free medium and then stimulated with FGF-2 or VEGF (50 ng/mL) for 5 or 20 minutes at 37° C. Cells were then washed twice with cold PBS and scraped and lysed at 4° C. in lysis buffer 1% NP-40 (150 mM NaCl, 50 mM Hepes pH 7.4, 5 mM EDTA, 10% glycerol, 1% NP-40, complete protease inhibitor cocktail (Roche), 1 mM Na3VO4). After centrifugation (13 000 g, 15 min, 4° C.), soluble proteins were collected. Protein amount was determined by BCA protein assay (Pierce) and equal amounts of proteins (10 μg) were loaded on SDS-PAGE and transfer on PVDF membrane at 100 V during 1 h. The blots were blocked with 5% BSA in TBS-T buffer (20 αmM Tris-HCl pH 7.4 and 0.05% Tween 20) and incubated with primary antibodies in TBST containing 5% bovine serum albumin, overnight at 4° C. Immunoreactivity was detected by sequential incubation with horseradish peroxidase-conjugated secondary antibodies purchased and ECL detection reagents purchased from Biorad. The antibodies used for phospho-protein detection were the followings: anti-AKT, anti-phospho-Akt (Ser473), anti-ERK1/2 and anti-phospho-ERK1/2 (Thr202/Tyr204, Thr185/Tyr187) (all from Cell Signaling Technology).
(§2) The aim of the experiments presented in FIG. 4 was to determine if, after incubation of endothelial cells with the peptide HEPV, the response to FGF-2 was affected by the presence of this peptide. The measured response to FGF-2 is the level of phosphorylation of proteins ERK 1/2 and Akt, involved in the signalization pathway of FGF-2 and VEGF, as determined with specific antibodies.
Endothelial cells HUVEC have been treated during 24 hours with HEPV or the control peptide ΔHBS-HEPV, and have then been stimulated with FGF-2 (FIG. 4A) or VEGF (50 ng/ml) (FIG. 4B).

[4] = tested on: VEGF-induced ERK1/2 phosphorylation in HUVEC; experiment: Phosphorylation assay (Western blot) after VEGF stimulation; format: cell-based; conditions: peptide 8 μg/mL 24 h, VEGF 50 ng/ml
Method: as §1, with “The blots were blocked with 5% BSA in TBS-T buffer (20 αmM Tris-HCl pH 7.4 and 0.05% Tween 20) and incubated with primary antibodies in TBST containing 5% bovine serum albumin, overnight at 4° C.” left out, “The antibodies used for phospho-protein detection were the followings: anti-AKT, anti-phospho-Akt (Ser473), anti-ERK1/2 and anti-phospho-ERK1/2 (Thr202/Tyr204, Thr185/Tyr187) (all from Cell Signaling Technology).” left out
as §2, with “antibodies. […]” for “antibodies.”

[5] = Organ distribution of the peptide after injection into the blood system; format: in vivo; conditions: mouse
[6] = tested on: FGF-2 induced angiogenesis; experiment: Hemoglobin measurement in implanted FGF-2 sponges; format: in vivo, nude mice; conditions: 20 μg peptide first day then every two days, after 7 days of treatment
Text: (B) Formation of new blood vessels in nude mice implanted with a sponge impregnated with FGF-2 or PBS. After repeated treatments with peptides HEPV or HEPV-ΔHBS, the sponges are extracted and the presence of hemoglobin quantified. The presence of hemoglobin reflects the blood vessels content, as documented by the photos.
Disc Cellspon cellulose sponges (thickness 2 mm, diameter 10 mm; Cellomeda, Turku, Finland) were implanted under the skin of the mice. Prior to implantation, the sponges were hydrated with 50 μl of either PBS (negative control) or FGF-2 (200 ng/50 μl; positive angiogenic control) (recombinant FGF-2, Eurobio-AbCys, Les Ulis, France). […]
After implantation of the PBS or FGF-2 treated sponges and treatment with 50 μl containing 50 μg HEP peptides at DO, 2, 3 and 5, the hemoglobin content was measured at D8. […] Each sponge was homogenized in 1 ml of RIPA lysis buffer containing a cocktail of protease inhibitors, centrifuged at 200 g, and the supernatants were quantified. The extent of vascularization of the sponge implants was assessed by measuring the concentration of hemoglobin with Drabkin's reagent (Sigma-Aldrich, Saint-Quentin Fallavier, France). […]
20 μg of HEPV or ΔHBS-HEPV have been injected simultaneously with PBS or FGF-2, at the first day and then every two days. After 7 days of treatment, sponges are taken out and analyzed. […]

[7] = tested on: murine TS/Apc breast cancer cells implanted subcutaneously; experiment: Antitumor activity, tumor growth by caliper; format: in vivo, nude mice; conditions: 50 μg peptide every 2 days, versus HEPV-ΔHBS control; from day 20 of treatment
Method: (A) Murine Tsa/Pc breast cancer cells implanted subcutaneously are treated from day 5 repeatedly by peritumoral injections of 50 μl PBS containing 50 μg control (HEPV-ΔHBS) of HEPV peptides every 2 days. […] Tumors sections were immunostained using an anti-CD31 antibody that detects blood vessels (B) or an anti-Ki67 antibody that stains proliferating cells (C).
TS/Apc-pGL3 is a cell line derived from the original adenocarcinoma TS/Apc mouse cell line stably transfected with the pGL3-luciferase reporter gene (Promega, Charbonnieres, France). Cells were cultured at 37° C. in a humidified 5% CO2 incubator in RPMI 1640 supplemented with 1% glutamine, 10% fetal bovine serum, 50 units/ml penicillin, 50 μg/ml streptomycin, β-mercaptoethanol (25 μM) and 700 μg/ml Geneticin® (G418 sulphate; Gibco, Paisley, UK).
Twenty female athymic Swiss nude mice, purchased from Janvier (Le Genest Saint Isle, France) at 6-8 weeks of age were used and maintained under specific pathogen-free conditions. Mice received a subcutaneous (s.c.) injection of 10^6 TS/Apc-pGL3 cells suspended in 200 μl of PBS into the right flank usually results in formation of 6-8 mm-diameter tumors after one week. […] Tumor growth was evaluated using calipers.
Tumors have been induced by implantation of murine breast cancer cells (TSA) in nude mice. […] The volume of the tumors is measured with a caliper.

[8] = tested on: murine TS/Apc breast cancer tumors; experiment: Immunohistology of tumor sections (anti-CD31, anti-Ki67); format: in vivo, nude mice
Method: At day 20, 3 mice/group were sacrificed for immunohistology studies. At day 35 days after implantation all remaining tumors were extracted.
Frozen sections (8 μm) from tumors were fixed in acetone for 10 min. Sections were then washed 3×5 min in Tris-buffered saline containing 0.1% Tween 20, and endogenous peroxidases were blocked with 0.1% H2O2 in methanol for 20 min. Sections were then sequentially incubated for 1 h with a rat monoclonal anti-CD31 antibody (MEC13.3;1:500; Pharmingen) or rabbit anti-Ki67 (1:100; AbCAM) and for 1 h with goat anti-rat antibody for CD31 (1:500; Cell-signaling) or goat anti-rabbit for Ki67 (1:200; Dako). […] Sections were counterstained with hematoxylin and all were mounted.
Staining against the endothelial marker CD31 by means of immunohistochemistry was followed by observation under low magnification scope (100×), five field of view of each tumor (5 tumors by condition). Then, vessels quantity were measured in each of these areas utilizing ImageJ software (http://rsbweb.nih.gov/ij). All counts were performed in a blinded manner.
After immunohistochemical staining against Ki67, slides were observed under high magnification scope (200×). Six to nine areas by tumor were photographed. These photographs were analyzed by the plugging ImmunoRatio in ImageJ software (http://rsbweb.nih.gov/ij). The Ki67 index was evaluated in a blinded manner and calculated as Ki67-positive cells divided by all tumor cells in one field.
Mice from each group are sacrificed at day 20 and day 33 to check the formation of novel blood vessels. The account of the blood vessels is realized by observations of the tumors samples.
The proliferation of tumor cells with an antibody anti-Ki67 is also realized on these tumor samples.

B1: HEPV: 12 kDa recombinant fragment of the collagen V pro-α1 chain, residues Ile824 to Pro950, SEQ ID NO. 1, binds heparin (protein, listed as Homo sapiens)
chain: IKGDRGEIGPPGPRGEDGPEGPKGRGGPNGDPGPLGPPGEKGKLGVPGLPGYPGRQGPKGSIGFPGFPGANGEKGGRGTPGKPGPRGQRGPTGPRGERGPRGITGKPGPKGNSGGDGPAGPPGERGP
modifications: HEPV
With B1 the “NaCl concentration needed to elute the peptide from heparin-sepharose” value [1] was 0.35 M, the “Expression of COL4A1 mRNA” value [2] was “up-regulated” and the “Expression of COL18A1 mRNA” value [2] was “up-regulated”. For the same molecule, the “Phosphorylation of Akt after stimulation with FGF-2” value [3] was “inhibits”, the “Phosphorylation of ERK1/2 after stimulation with FGF-2” value [3] was “inhibited” and the “Phosphorylation of ERK1/2 after stimulation with VEGF” value [4] was “present a phosphorylation of ERK1/2”. For the same molecule, the “Toxicity (concluded from absence of liver accumulation)” value [5] was “non-toxic”, the “Accumulation in various organs” value ([5]; results not shown) was “does not accumulate non-specifically in various organs, except in kidney and bladder” and the “Accumulation into the liver” value ([5]; results not shown) was “does not accumulate into the liver”. The “Decrease of hemoglobin level in sponges, in comparison with mice treated with ΔHBS-HEPV” value [6] was 2.5 times, the “Tumor growth (tumor volume)” value [7] was “slows down; also recorded: significantly (p<0.05) slowed down” and the “Blood vessels density in tumors (anti-CD31), compared to ΔHBS-HEPV-treated mice” value ([8]; day 20) was “significant decrease”. The “Tumor cells proliferation (anti-Ki67)” value ([8]; day 20) was “significant decrease”, the “Blood vessels density in tumors (anti-CD31), compared to ΔHBS-HEPV-treated mice” value ([8]; day 33) was “less significant” and the “Tumor cells proliferation (anti-Ki67)” value ([8]; day 33) was “the proliferation strikes back”.

B2: ΔHBS-HEPV: non-functional HEPV mutant, SEQ ID NO. 4, Lys905, Arg909 and Arg912 replaced with alanines; negative control (protein)
chain: IKGDRGEIGPPGPRGEDGPEGPKGRGGPNGDPGPLGPPGEKGKLGVPGLPGYPGRQGPKGSIGFPGFPGANGEKGGRGTPGAPGPAGQAGPTGPRGERGPRGITGKPGPKGNSGGDGPAGPPGERGP
modifications: Synthetic Mutant of HEPV
notes: 4, Lys905, Arg909 and Arg912 replaced with alanines; negative control
In the case of B2, the “NaCl concentration needed to elute the peptide from heparin-sepharose” value [1] is reported as 0.2 M and the “Phosphorylation of ERK1/2 after stimulation with FGF-2” value [3] is reported as “inefficient”.
